In paper PMC2171418 (The Journal of Cell Biology, 2005):

B1: Spc42p (natural protein, UniProt P36094 1-363, looked up)
chain: MNGSPTPKRYSSKSSRLYDDYYNIPYQYSNPTPMNRDYNDVGSRINADKLVPEEYKRNTEFINKAVQQNKELNFKLREKQNEIFELKKIAETLRSKLEKYVDITKKLEDQNLNLQIKISDLEKKLSDANSTFKEMRFPKVKDPMVDDDPVSENYDQINVPKHRAPDATGNPRTTNKVSNTSDQDSRLKAIERTLSVLTNYVMRSEDGNNDRMSPLPSPLNTILPINNRLNFQEPKRYNPTVKVNPSDDDIMMYESAELKRVEEEIEELKRKILVRKKHDLRKLSLNNQLQELQSMMDGDDNIKLDNVSKHNHATHRHSSQSSRDYSPSSDACLECSNDLYEKNRVKPENNMSETFATPTPNNR
B2: Spc29p (natural protein, UniProt P33419 1-253, looked up)
chain: MDYSNFGNSASKKFQDDTLNRVRKEHEEALKKLREENFSSNTSELGNKKHYRAQERMSSPLHRLSPTGKSDDRKVKSPLDDKLRRQLREGNTRLPPPPFSSYGMPPTNRSNLDRIRRRTSSPVRTDKFASQNVIDDQRLEIKYLERIVYDQGTVIDNLTSRITRLESFILNSISDRGDKNFASLEHSRSFSGFPTNKTYGLQMGGLYENDMPYRRSSDNINKEGAREDRSSQIHIENESTEDILKILSSSFHN
B3: Spc110p (natural protein, UniProt P32380 1-944, looked up)
chain: MDEASHLPNGSLKNMEFTPVGFIKSKRNTTQTQVVSPTKVPNANNGDENEGPVKKRQRRSIDDTIDSTRLFSEASQFDDSFPEIKANIPPSPRSGNVDKSRKRNLIDDLKKDVPMSQPLKEQEVREHQMKKERFDRALESKLLGKRHITYANSDISNKELYINEIKSLKHEIKELRKEKNDTLNNYDTLEEETDDLKNRLQALEKELDAKNKIVNSRKVDDHSGCIEEREQMERKLAELERKLKTVKDQVLELENNSDVQSLKLRSKEDELKNLMNELNELKSNAEEKDTQLEFKKNELRKRTNELNELKIKSDEMDLQLKQKQNESKRLKDELNELETKFSENGSQSSAKENELKMLKNKIAELEEEISTKNSQLIAKEGKLASLMAQLTQLESKLNQRDSQLGSREEELKKTNDKLQKDIRIAREETVSKDERIIDLQKKVKQLENDLFVIKKTHSESKTITDNELESKDKLIKILENDLKVAQEKYSKMEKELKEREFNYKISESKLEDEKTTLNEKISNLAAENSQLKNKIEDNSTATHHMKENYEKQLESLRKDIEEYKESAKDSEDKIEELKIRIAENSAKVSEKRSKDIKQKDEQISDLTQNLKLQEDEISSLKSIIDRYKKDFNQLKSEQSNIQHDLNLQILNLENKLIESEDELKSLRDSQKIEIENWKRKYNNLSLENDRLLTEKESASDKEREISILNRKLDEMDKEKWNLQESKEKYKRELQKVITANDRLRREKEELNENSNNIRIMEDKMTRIKKNYLSEITSLQEENRRLEERLILNERRKDNDSTMQLNDIISYYKLKYHSEVRHNNDLKVINDYLNKVLALGTRRLRLDTRKGEHSLNISLPDDDELDRDYYNSHVYTRYHDYEYPLRFNLNRRGPYFERRLSFKTVALLVLACVRMKRIAFYRRSDDNRLRILRDRIESSSGRISW

Molecular target: Mlp2p–protein A (PrA) (S. cerevisiae, UniProt P40457 1-1679)
Sequence (P40457 whole entry): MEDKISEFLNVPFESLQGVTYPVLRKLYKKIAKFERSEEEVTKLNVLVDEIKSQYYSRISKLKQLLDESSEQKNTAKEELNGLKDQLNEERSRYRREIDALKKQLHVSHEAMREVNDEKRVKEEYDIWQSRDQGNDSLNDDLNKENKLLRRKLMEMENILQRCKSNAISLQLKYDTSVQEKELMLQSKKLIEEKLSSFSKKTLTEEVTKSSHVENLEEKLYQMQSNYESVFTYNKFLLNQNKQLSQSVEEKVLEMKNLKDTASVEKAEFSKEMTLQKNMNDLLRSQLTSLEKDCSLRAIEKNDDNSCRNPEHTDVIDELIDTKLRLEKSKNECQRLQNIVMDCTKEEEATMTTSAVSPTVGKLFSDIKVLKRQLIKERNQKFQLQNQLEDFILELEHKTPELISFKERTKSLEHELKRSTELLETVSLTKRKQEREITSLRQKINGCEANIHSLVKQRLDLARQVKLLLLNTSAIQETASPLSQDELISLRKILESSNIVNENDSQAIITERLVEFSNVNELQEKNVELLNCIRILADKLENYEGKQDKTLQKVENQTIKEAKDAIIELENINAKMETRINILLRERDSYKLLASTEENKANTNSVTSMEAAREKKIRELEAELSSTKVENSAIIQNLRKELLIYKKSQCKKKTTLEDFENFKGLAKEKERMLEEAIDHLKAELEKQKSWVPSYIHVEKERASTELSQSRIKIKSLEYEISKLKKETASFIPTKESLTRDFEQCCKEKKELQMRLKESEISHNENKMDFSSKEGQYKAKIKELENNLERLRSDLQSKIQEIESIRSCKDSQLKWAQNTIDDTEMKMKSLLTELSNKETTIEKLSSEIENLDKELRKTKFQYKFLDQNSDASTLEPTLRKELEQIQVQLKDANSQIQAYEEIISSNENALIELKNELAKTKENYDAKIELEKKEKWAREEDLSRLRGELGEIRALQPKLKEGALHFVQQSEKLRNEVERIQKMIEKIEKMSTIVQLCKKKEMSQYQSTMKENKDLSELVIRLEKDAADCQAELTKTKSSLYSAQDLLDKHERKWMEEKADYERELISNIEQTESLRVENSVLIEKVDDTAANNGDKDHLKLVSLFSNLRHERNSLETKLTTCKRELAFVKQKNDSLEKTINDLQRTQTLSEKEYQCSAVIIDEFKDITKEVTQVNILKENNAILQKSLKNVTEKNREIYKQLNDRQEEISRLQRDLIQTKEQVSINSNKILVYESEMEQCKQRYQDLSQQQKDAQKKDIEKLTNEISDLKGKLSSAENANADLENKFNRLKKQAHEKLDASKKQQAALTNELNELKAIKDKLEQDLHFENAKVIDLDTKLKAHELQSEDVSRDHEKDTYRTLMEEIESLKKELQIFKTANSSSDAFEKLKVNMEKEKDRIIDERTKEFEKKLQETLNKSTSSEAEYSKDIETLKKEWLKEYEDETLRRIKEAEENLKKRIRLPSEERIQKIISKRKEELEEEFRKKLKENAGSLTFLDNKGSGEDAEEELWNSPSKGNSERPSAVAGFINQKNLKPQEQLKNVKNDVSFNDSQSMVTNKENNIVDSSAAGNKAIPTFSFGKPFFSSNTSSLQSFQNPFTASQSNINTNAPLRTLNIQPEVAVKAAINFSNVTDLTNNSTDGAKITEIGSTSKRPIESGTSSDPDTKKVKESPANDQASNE
Assay: far-Western, overlay or dot blot

Binding result, binds:
B1
B2
B3
